One test has as its target T1, GIPR E463Q (human) (UniProt P48546).
T1 sequence: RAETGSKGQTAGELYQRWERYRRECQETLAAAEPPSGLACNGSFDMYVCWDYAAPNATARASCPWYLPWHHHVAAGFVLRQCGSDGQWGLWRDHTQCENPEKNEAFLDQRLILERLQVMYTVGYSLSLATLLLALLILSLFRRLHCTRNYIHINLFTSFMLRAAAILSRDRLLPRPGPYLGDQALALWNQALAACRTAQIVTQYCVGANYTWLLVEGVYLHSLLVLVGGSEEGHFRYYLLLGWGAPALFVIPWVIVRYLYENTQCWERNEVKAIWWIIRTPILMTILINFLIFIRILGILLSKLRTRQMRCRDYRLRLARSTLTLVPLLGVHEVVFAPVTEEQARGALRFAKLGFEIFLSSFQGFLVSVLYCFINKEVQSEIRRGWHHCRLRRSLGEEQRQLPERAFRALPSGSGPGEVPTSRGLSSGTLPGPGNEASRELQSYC

Another test addresses T2, GIPR E288G (human) (UniProt P48546).
T2 sequence: T1 sequence with E267G, Q442E

The target in a further test is GIPR R12Q (human) (UniProt P48546).
For the next test, the target named is T3, GIPR V99I (human) (UniProt P48546).
T3 sequence: T1 sequence with V78I, Q442E

Another test has as its target T4, GIPR W90Lfs* (human) (UniProt P48546).
T4 sequence (P48546 whole entry, looked up): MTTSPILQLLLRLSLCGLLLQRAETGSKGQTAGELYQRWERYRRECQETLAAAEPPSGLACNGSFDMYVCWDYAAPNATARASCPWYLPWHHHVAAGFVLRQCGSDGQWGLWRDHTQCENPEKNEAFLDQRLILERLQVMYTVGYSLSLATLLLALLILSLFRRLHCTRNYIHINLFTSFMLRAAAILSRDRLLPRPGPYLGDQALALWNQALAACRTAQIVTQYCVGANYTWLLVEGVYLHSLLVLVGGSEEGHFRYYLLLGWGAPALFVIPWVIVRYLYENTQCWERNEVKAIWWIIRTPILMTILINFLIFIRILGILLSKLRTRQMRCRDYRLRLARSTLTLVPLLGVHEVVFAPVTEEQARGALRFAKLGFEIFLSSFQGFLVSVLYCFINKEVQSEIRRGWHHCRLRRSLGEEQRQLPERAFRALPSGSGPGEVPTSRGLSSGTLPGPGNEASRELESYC

For the next test, the target named is T5, GIPR K397N (human) (UniProt P48546).
T5 sequence: T1 sequence with K376N, Q442E

The next test deals with GIPR L13F (human) (UniProt P48546).
The next test addresses T6, GIPR A150T (human) (UniProt P48546).
T6 sequence: T1 sequence with A129T, Q442E

Where a chain is given by its changes, count along the chain named.

Consider “β-arrestin 2 (Rluc8-Arrestin-3-Sp1) (from UniProt P32121 1-409) (natural protein)”, for which the β-arrestin 2 recruitment (BRET) on stimulation with GIP(1-42): logEC50 (Arrestin) (log M (inferred)) in the test with GIPR E463Q (human) was -9.08; in the test with GIPR E288G (human), -9.15; with GIPR R12Q (human), -8.72; with GIPR V99I (human) it was -8.93; in the test with GIPR W90Lfs* (human) it was -10.8; with GIPR K397N (human) it was -8.9. Also, the β-arrestin 2 recruitment (BRET) on stimulation with GIP(1-42): logEC50 (Arrestin) (log M (inferred)) in the test with GIPR L13F (human) was -8.75; with GIPR A150T (human), -8.92.
